{"source": "patent US20240368233A1", "about": "(University of Washington, published 2024)", "binders": {"B1": {"name": "LHD202 chainA (designed binder)", "chain": "GRQEKVLKSIEETVRKMGVTMETHRSGNKVKVVIKGLHESQQEQLRKDVHETLRKQGVVAVTQKHGDTVTIYVTE", "notes": "also called LHD202A"}, "B2": {"name": "101A21, split luciferase reporter construct (designed binder)", "chain": "SEKEKVEELAQRIREQLPDTELAREAQELADEARKSDDSEALKVVYLALRIVQQLPDTELAREALELAKEAVKSTDSEKLKVVYLALRVVQQLPDTEEARKALEIAKEAVKADAQILLAIARAVLKMGVEMEVHPSGNEVKVVIKGLHIKQQRQLYRDVREAAKKAGVEVEIEVEGDTVTIVVRE", "notes": "also called LHD101-A21-B82 (A21 half); not shown: N-terminal Strep-tag and sfGFP; GS-linker and smBiT or lgBiT"}, "B3": {"name": "LHD29 chainA, split luciferase reporter construct (designed binder)", "chain": "TWQWVLINISEEARQRIEEYVRRISKKEGTEVHFEKDDGVLHIRVKNLHEKRAREIHEYAKRVIL", "notes": "not shown: N-terminal Strep-tag and sfGFP; GS-linker and smBiT or lgBiT"}, "B4": {"name": "LHD101 chainA, split luciferase reporter construct (designed binder)", "chain": "GRQEKVLKSIEETVRKMGVTMETHRSGNEVKVVIKGLHIKQQRQLYRDVRETSKKQGVETEIEVEGDTVTIVVRE", "notes": "as for B3"}, "B5": {"name": "101A53, split luciferase reporter construct (designed binder)", "chain": "NDEKEKLKELLKRAEELAKSPDPEDLKEAVRLAEEVVRERPGSNLAKKALEIILRAAEELAKLPDPEALKEAVKAAEKVVREQPGSNLAKKALEIILRAAAALANLPDPESRKEADKAADKVRREQPGSELAVVAAIISAVARMGVKMELHPSGNEVKVVIKGLHIKQQRQLYRDVREAAKKAGVEVEIEVEGDTVTIVVRG", "notes": "also called LHD101-A53-B4 (A53 half); not shown: N-terminal Strep-tag and sfGFP; GS-linker and smBiT or lgBiT"}, "B6": {"name": "LHD206 chainA, split luciferase reporter construct (designed binder)", "chain": "TDELLERLRQLFEELHERGTEIVVEVHINGRKTEIEVQGIDKRLLKIILEVIREEIEREGSSEVEVNVHSGGQTWTFNEK", "notes": "as for B3"}}, "key": {"[1]": {"target": "T1, LHD202 chainB", "T1 construct": "also called LHD202B", "T1 chain": "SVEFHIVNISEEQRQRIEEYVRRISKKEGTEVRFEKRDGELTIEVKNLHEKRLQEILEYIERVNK", "experiment": "BLI, steady state fit"}, "[2]": {"target": "T1, LHD202 chainB", "experiment": "BLI, global kinetic fit, 1:1 model"}, "[3]": {"target": "T2, 101B82, split luciferase reporter construct", "T2 construct": "not shown: N-terminal Strep-tag and sfGFP; GS-linker and smBiT or lgBiT", "T2 chain": "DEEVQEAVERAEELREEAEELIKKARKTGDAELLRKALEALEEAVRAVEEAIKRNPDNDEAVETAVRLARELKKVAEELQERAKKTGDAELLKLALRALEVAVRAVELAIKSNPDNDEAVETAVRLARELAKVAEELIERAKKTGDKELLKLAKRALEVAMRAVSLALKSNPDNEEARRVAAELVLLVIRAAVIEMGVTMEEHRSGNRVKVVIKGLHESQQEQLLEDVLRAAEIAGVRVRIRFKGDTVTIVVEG", "experiment": "split luciferase equilibrium binding in lysate"}, "[4]": {"target": "T3, LHD29 chainB, split luciferase reporter construct", "T3 construct": "not shown: N-terminal Strep-tag and sfGFP; GS-linker and smBiT or lgBiT", "T3 chain": "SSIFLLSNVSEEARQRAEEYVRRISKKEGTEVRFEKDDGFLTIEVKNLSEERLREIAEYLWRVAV", "experiment": "split luciferase association kinetics, 1 nM vs. 10 nM, in lysate", "protocol": "(§1) Assays were performed in 20 mM sodium phosphate, 100 mM NaCl, pH 7.4, 0.05% v/v Tween 20. Reactions were assembled in 96 well plates (Corning, cat #3686) in the presence of Nano-Glo™ substrate (Promega, cat. #N1130) diluted 100× or 500× for kinetics and endpoint measurements respectively (see supplement for detailed information). Luminescence was recorded on a Synergy Neo2 plate reader (BioTek). Kinetic assays were performed under pseudo first-order conditions, with the final concentration of one protein at 1 nM and the other at 10 nM. Dead times between substrate addition and data acquisition were typically 15-30 s. For long kinetic measurements (FIG. 11A), mastermixes of the protein complexes were made and aliquots were sampled at regular intervals. Data were fitted to a single exponential decay function: […]"}, "[5]": {"target": "T3, LHD29 chainB, split luciferase reporter …", "experiment": "split luciferase; affinity of the interface as measured in isolation, used to simulate the ternary complex ABC"}, "[6]": {"target": "T3, LHD29 chainB, split luciferase reporter …", "experiment": "split luciferase equilibrium binding in lysate"}, "[7]": {"target": "T4, LHD101 chainB, split luciferase reporter construct", "T4 construct": "not shown: N-terminal Strep-tag and sfGFP; GS-linker and smBiT or lgBiT", "T4 chain": "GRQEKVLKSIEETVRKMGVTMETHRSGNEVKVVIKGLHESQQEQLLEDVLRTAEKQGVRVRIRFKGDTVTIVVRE", "experiment": "split luciferase association kinetics, 1 nM vs. 10 nM, in lysate", "protocol": "as §1"}, "[8]": {"target": "T4, LHD101 chainB, split luciferase …", "experiment": "split luciferase; affinity of the interface as measured in isolation, used to simulate the ternary complex ABC"}, "[9]": {"target": "T4, LHD101 chainB, split luciferase …", "experiment": "split luciferase equilibrium titration in E. coli lysate, constant partner at 1 nM; first-named construct read as the titrated one; no unit beside the number, M from the axis '[Titrated] / M'"}, "[10]": {"target": "T4, LHD101 chainB, split luciferase …", "experiment": "split luciferase equilibrium binding in lysate"}, "[11]": {"target": "T5, 101B4, split luciferase reporter construct", "T5 construct": "not shown: N-terminal Strep-tag and sfGFP; GS-linker and smBiT or lgBiT", "T5 chain": "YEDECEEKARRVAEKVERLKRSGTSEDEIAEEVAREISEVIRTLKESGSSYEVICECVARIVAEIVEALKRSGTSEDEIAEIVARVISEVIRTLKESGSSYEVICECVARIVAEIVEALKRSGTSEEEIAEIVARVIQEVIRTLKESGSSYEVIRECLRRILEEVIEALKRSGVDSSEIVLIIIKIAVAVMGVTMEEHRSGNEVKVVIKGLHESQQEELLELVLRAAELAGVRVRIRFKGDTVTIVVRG", "experiment": "split luciferase association kinetics, 1 nM vs. 10 nM, in lysate", "protocol": "as §1"}, "[12]": {"target": "T5, 101B4, split luciferase reporter …", "experiment": "split luciferase equilibrium binding in lysate"}, "[13]": {"target": "T6, LHD206 chainB, split luciferase reporter construct", "T6 construct": "not shown: N-terminal Strep-tag and sfGFP; GS-linker and smBiT or lgBiT", "T6 chain": "T4 chain with E39K, E47K, R51K, E54N, R59N, R61H, R63S, K65R, V72R", "experiment": "split luciferase association kinetics, 1 nM vs. 10 nM, in lysate", "protocol": "as §1"}, "[14]": {"target": "T6, LHD206 chainB, split luciferase …", "experiment": "split luciferase equilibrium binding in lysate"}}, "note": "Changes are numbered by the printed parent chain.", "data": [{"binder": "B1", "values": [{"measurement": "Kd", "setting": "[1]", "value": 2400, "unit": "nM"}, {"measurement": "Kd", "setting": "[2]", "value": 4800, "unit": "nM"}, {"measurement": "koff", "setting": "[2]", "value": 0.29, "unit": "s⁻¹"}, {"measurement": "kon", "setting": "[2]", "value": 60000, "unit": "M⁻¹ s⁻¹"}]}, {"binder": "B2", "values": [{"measurement": "Kd", "setting": "[3]", "value": 11, "unit": "nM"}]}, {"binder": "B3", "values": [{"measurement": "kobs", "setting": "[4]", "value": 0.0003, "unit": "s⁻¹"}, {"measurement": "Kd", "setting": "[5]", "value": 50, "unit": "nM"}, {"measurement": "Kd", "setting": "[6]", "value": 60, "unit": "nM"}]}, {"binder": "B4", "values": [{"measurement": "kobs", "setting": "[7]", "value": 0.04, "unit": "s⁻¹"}, {"measurement": "Kd", "setting": "[8]", "value": 5, "unit": "nM"}, {"measurement": "Kd", "setting": "[9]", "value": 37, "unit": "nM"}, {"measurement": "Kd", "setting": "[10]", "value": 20, "unit": "nM"}]}, {"binder": "B5", "values": [{"measurement": "kobs", "setting": "[11]", "value": 0.026, "unit": "s⁻¹"}, {"measurement": "Kd", "setting": "[12]", "value": 4, "unit": "nM"}]}, {"binder": "B6", "values": [{"measurement": "kobs", "setting": "[13]", "value": 0.01, "unit": "s⁻¹"}, {"measurement": "Kd", "setting": "[14]", "value": 11, "unit": "nM"}]}]}
